{
  "source": "patent US10322164B2",
  "about": "“Modulation of cellular localization of cyclin C” (Rowan University, priority 2014, dated 2019)",
  "key": {"[1]": {"molecular_target": "T1, cyclin C-Med13 interaction (Mus musculus, UniProt Q5SWW4)", "T1 construct": "endogenous in cells; host or cells: wild type (CCNC+/+) mouse embryonic fibroblasts, SV40 T antigen immortalized", "T1 sequence (Q5SWW4 whole entry)": "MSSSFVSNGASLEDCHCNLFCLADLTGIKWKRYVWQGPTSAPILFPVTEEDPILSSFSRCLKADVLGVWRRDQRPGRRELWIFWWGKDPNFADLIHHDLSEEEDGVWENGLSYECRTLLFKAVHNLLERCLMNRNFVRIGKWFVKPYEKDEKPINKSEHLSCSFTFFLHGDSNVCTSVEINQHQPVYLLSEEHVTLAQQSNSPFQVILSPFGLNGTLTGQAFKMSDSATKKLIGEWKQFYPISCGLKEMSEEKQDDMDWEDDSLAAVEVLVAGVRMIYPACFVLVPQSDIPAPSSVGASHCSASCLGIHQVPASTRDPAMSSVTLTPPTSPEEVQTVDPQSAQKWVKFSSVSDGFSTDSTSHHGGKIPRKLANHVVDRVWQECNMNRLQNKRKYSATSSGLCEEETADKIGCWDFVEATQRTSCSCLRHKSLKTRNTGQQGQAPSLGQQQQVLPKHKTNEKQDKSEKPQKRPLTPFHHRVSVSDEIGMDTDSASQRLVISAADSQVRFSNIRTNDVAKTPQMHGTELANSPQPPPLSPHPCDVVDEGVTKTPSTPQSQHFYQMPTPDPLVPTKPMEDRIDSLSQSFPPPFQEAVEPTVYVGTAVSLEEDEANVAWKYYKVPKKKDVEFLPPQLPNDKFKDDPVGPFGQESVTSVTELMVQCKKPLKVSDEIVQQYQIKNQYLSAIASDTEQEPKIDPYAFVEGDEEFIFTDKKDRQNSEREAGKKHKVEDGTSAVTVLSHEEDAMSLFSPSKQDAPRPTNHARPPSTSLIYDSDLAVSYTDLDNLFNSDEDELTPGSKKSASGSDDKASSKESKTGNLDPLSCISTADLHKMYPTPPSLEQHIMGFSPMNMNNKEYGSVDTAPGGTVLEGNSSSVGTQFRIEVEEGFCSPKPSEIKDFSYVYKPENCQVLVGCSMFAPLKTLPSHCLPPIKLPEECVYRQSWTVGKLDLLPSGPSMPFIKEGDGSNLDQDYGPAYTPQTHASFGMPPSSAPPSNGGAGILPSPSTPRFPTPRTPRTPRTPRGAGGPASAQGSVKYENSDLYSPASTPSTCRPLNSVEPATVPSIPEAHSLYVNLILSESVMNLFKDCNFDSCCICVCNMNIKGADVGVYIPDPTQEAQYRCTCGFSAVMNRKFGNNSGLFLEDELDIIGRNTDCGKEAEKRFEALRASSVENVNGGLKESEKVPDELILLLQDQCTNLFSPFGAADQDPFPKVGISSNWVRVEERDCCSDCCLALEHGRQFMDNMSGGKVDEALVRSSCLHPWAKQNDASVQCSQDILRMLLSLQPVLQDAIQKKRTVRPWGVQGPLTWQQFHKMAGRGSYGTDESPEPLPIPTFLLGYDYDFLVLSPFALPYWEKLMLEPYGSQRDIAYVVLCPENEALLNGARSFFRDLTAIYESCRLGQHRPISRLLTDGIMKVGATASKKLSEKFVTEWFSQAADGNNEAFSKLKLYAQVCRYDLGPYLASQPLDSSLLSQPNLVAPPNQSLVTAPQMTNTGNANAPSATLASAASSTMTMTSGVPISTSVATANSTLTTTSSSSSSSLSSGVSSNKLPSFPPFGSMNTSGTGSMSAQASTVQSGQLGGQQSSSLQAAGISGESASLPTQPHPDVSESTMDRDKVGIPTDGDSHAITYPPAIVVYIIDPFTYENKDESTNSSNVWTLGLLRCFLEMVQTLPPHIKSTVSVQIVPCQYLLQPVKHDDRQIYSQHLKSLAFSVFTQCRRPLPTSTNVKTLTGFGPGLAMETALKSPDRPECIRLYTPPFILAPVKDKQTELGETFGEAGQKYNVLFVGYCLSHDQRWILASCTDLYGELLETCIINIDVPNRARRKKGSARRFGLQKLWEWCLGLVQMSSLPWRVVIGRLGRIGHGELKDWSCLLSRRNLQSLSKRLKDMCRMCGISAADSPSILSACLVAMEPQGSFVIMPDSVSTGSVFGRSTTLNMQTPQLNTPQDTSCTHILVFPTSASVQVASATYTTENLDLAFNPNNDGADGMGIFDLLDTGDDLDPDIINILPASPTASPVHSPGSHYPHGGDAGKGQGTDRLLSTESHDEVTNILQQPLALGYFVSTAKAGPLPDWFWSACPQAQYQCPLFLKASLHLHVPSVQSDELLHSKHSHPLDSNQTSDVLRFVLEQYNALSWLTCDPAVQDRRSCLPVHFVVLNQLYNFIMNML", "experiment": "Cyclin C localization and mitochondrial morphology in MEF cells incubated with TAT-HAD or control peptide (indirect immunofluorescence)", "assay_type": "cell-based", "protocol": "The amino terminal sequences of cyclin C from the indicated organisms. Homologies are shaded. Boxed region is targeted using the HIV TAT basic domain fused to the 19 amino acid (aa) peptide indicated by the line above the sequence. (FIG. 11B) Representative images of MEF cells incubated with TAT-HAD peptide or control (25 μM) for three hours then fixed and stained for the nucleus (DAPI), mitochondria (MitoTracker Red) and cyclin C (α-cyclin C). Arrows indicate regions of interaction between cyclin C and mitochondria.\n(§1) Cells were cultured on coverslips then fixed with 4% paraformaldehyde for 20 min, permeabilized with 0.2% Triton X-100 for 15 min, blocked with 2% BSA, and incubated with antibodies as indicated. The cells were mounted with DAPI-containing medium (Vector Labs) and the images were acquired with Nikon Eclipse 90i microscope equipped with a Retiga Exi CCD camera and NIS software for data analysis. DAPI (5 μg/ml) and Mitotracker Red (5 μg/ml) staining was used to identify nuclear and mitochondrial subcellular localization.\nCCNC^+/+ and CCNC^−/− MEF cells were treated with 0.4 mM H2O2 for 4 hrs. Mitochondrial morphology was monitored by MitoTracker Red staining. The cells were imaged with the 60× objective on the Nikon Eclipse C1Ti confocal microscope equipped with a Ds-Qi1MC CCD camera. The TAT-HAD peptide was added to log phase unstressed wild type MEF cultures for 3 h prior to image acquisition.\nA highly conserved region of cyclin C has been identified [Cooper, K. F. and R. Strich, Functional analysis of the Ume3p/Srb11p-RNA polymerase II holoenzyme interaction. Gene Expr, 1999. 8(1): p. 43-57; Cooper, K. F., S. Khakhina, S. K. Kim, and R. Strich, Stress-Induced Nuclear-to-Cytoplasmic Translocation of Cyclin C Promotes Mitochondrial Fission in Yeast, Dev Cell, 2014. 28: p. 161-173.], boxed, FIG. 11A) that is responsible for Med13 binding in yeast. […]"}, "[2]": {"tested_on": "MCF-7 breast cancer cell line", "experiment": "Cyclin C localization in stressed MCF-7 cells", "assay_type": "cell-based, human", "conditions": "H2O2 0.4 mM for 4 h", "protocol": "(§2) (FIG. 15A) cyclin C localization was followed in MCF-7 or MCF-10A cells exposed to H2O2 (0.4 mM) for 4 h. (FIG. 15B) cyclin C levels were monitored by Western blot in MCF-7 cells treated with (+) or without (−) CCNC specific siRNAs. β-tubulin levels were followed as a loading control. (FIG. 15C) Viability was measured (viable stain assays) in the cell lines described in (FIG. 15B) following 4 h H2O2 exposure as indicated.\nas §1\n(§3) To evaluate the role of cyclin C in PCD execution, CCNC specific siRNAs were used to knockdown cyclin C. The knockdown efficiency was about 70% compared to control (FIG. 14C)."}, "[3]": {"tested_on": "Drp1 phosphorylation at the activating serine (Ser616)", "experiment": "Drp1 Ser616 phosphorylation in Hela cells subjected to H2O2", "assay_type": "cell-based, human", "text": "(§4) For phosphorylation, both inhibitory and stimulatory modifications have been identified. For example, cyclin B-Cdk1 phosphorylation at the G2/M boundary stimulates Drp1 activity to induce fission to promote mitochondrial partitioning during mitosis. This modification is clearly observed in cells arrested at the G2/M boundary following addition of the microtubule destabilizing agent nocodazole. Therefore, one possibility is that cytoplasmic cyclin C is now free to interact with another Cdk to modify Drp1 and induce fission. However, no increase was found in Drp1 phosphorylation at the activating serine (Ser616) in Hela cells subjected to H2O2 or in permeabilized CCNC^−/−MEF cells treated with GST-cyclin C. […] It is possible that the accelerated fission in these experiments results in de-phosphorylation of Ser616 helping attenuate mitochondrial fragmentation."}, "HeLa cells": {"tested_on": "HeLa cells", "experiment": "Cyclin C localization in stressed HeLa cells", "assay_type": "cell-based, human", "protocol": "(FIG. 14A) cyclin C localization in H2O2 stressed cultures as indicated. See (FIG. 14B) for enlarged images for 6 hr+H2O2 cells. (FIG. 14C) Knockdown efficiency of cyclin C by siRNA. con=scrambled siRNA control. Annexin V studies in the cultures described in (FIG. 14D). Graph illustrates % annexin V positive cells for cells with and without Cyclin C siRNA knockdown in the presence or absence of H2O2. Error bars=s.e.m. Three independent cultures were assayed for each sample.\nas §1, §3"}, "MCF-10A cells": {"tested_on": "MCF-10A cells", "experiment": "Cyclin C localization and mitochondrial fission in stressed MCF-10A cells", "assay_type": "cell-based, human", "conditions": "H2O2 0.4 mM for 4 h", "protocol": "as §2, §1, §3"}, "[4]": {"tested_on": "permeabilized CCNC^−/−MEF cells", "experiment": "Mitochondrial fragmentation in digitonin-permeabilized CCNC-/- MEF cells after adding GST fusion proteins (live confocal microscopy)", "assay_type": "cell-based, mouse", "protocol": "To examine whether cyclin C was sufficient to induce fission or if additional stress-specific signals were required, permeabilized CCNC^−/−MEF cells were used and E. coli purified human GST-cyclin C (Hs GST-cyclin C). The CCNC^−/−null cell line was employed to avoid any contribution from endogenous cyclin C. GST-cyclin C or GST (˜4 nM) was added to digitonin treated cells and mitochondrial morphology was monitored in living cells by confocal microscopy. Images were collected for 18 min at 2 min increments. […] Deconvolved images reveled little detectable changes in mitochondrial morphology in the GST treated cultures up to 18 min (9.3%). […] To determine if this function is conserved, the activity of the yeast cyclin C fused to GST (GST-cyclin C Sc) was also examined. […] To determine if the quantity of GST-cyclin C added was rate limiting, this experiment was repeated with twice the GST-cyclin C Hs concentration as before."}, "[5]": {"tested_on": "Drp1 phosphorylation at the activating serine (Ser616)", "experiment": "Drp1 Ser616 phosphorylation in permeabilized CCNC-/- MEF cells treated with GST-cyclin C", "assay_type": "cell-based, mouse", "text": "as §4"}, "[6]": {"conditions": "permeabilized CCNC-/- MEF cells"}},
  "data": [
    {"molecule": "YGRKKRRQRRRWILDKQDLLKERQKDL (SEQ ID NO:6) (YGRKKRRQRRRWILDKQDLLKERQKDLKFL) [TAT-HAD peptide, HIV TAT basic domain fused to the cyclin C holoenzyme association domain (HAD) peptide]", "values": [
      {"measurement": "time within which the translocation/fragmentation phenotype was lost", "setting": "[1]", "value": "≤ 24", "unit": "h"},
      {"measurement": "cyclin C localization", "setting": "[1]; peptide 25 μM, three hours", "value": "nuclear to cytoplasmic cyclin C translocation"},
      {"measurement": "mitochondrial morphology", "setting": "[1]; peptide 25 μM, three hours, MitoTracker Red", "value": "abnormal fragmented morphology"}
    ]},
    {"molecule": "N.N.[Cl][Pt][Cl]", "note": "[cisplatin]", "values": [
      {"measurement": "cyclin C localization", "setting": "[2]", "value": "remained nuclear"}
    ]},
    {"molecule": "OO", "note": "[H2O2]", "values": [
      {"measurement": "cyclin C localization", "setting": "[2]", "value": "remained nuclear"},
      {"measurement": "Drp1 phosphorylation at Ser616", "setting": "[3]", "value": "no increase"},
      {"measurement": "cyclin C localization", "setting": "HeLa cells", "value": "translocated from the nucleus to the cytoplasm"},
      {"measurement": "cyclin C relocalization and mitochondrial fission", "setting": "MCF-10A cells", "value": "normal cyclin C relocalization and mitochondrial fission"}
    ]},
    {"molecule": "GST-cyclin C Sc: yeast cyclin C fused to GST (protein, UniProt P47821 1-323, looked up, GST tag) RNA polymerase II holoenzyme …: MSGSFWTSTQRHHWQYTKASLAKERQKLWLLECQLFPQGLNIVMDSKQNGIEQSITKNIPITHRDLHYDKDYNLRIYCYFLIMKLGRRLNIRQYALATAHIYLSRFLIKASVREINLYMLVTTCVYLACKVEECPQYIRTLVSEARTLWPEFIPPDPTKVTEFEFYLLEELESYLIVHHPYQSLKQIVQVLKQPPFQITLSSDDLQNCWSLINDSYINDVHLLYPPHIIAVACLFITISIHGKPTKGSSLASAASEAIRDPKNSSSPVQIAFNRFMAESLVDLEEVMDTIQEQITLYDHWDKYHEQWIKFLLHTLYLRPASAI", "values": [
      {"measurement": "efficiency of inducing mitochondrial fission compared with human cyclin C", "setting": "[4]; [6]", "value": "as efficient inducing mitochondrial fission as the human cyclin C"}
    ]},
    {"molecule": "GST-cyclin C: E. coli purified human GST-cyclin C (protein, UniProt P24863 1-283, looked up, GST tag) Cyclin-C: MAGNFWQSSHYLQWILDKQDLLKERQKDLKFLSEEEYWKLQIFFTNVIQALGEHLKLRQQVIATATVYFKRFYARYSLKSIDPVLMAPTCVFLASKVEEFGVVSNTRLIAAATSVLKTRFSYAFPKEFPYRMNHILECEFYLLELMDCCLIVYHPYRPLLQYVQDMGQEDMLLPLAWRIVNDTYRTDLCLLYPPFMIALACLHVACVVQQKDARQWFAELSVDMEKILEIIRVILKLYEQWKNFDERKEMATILSKMPKPKPPPNSEGEQGPNGSQNSSYSQS", "values": [
      {"measurement": "Drp1 phosphorylation at Ser616", "setting": "[5]; [6]", "value": "no increase"},
      {"measurement": "quantitation of the Ser616 phosphorylation signal", "setting": "[5]; permeabilized cells", "value": "reduced"},
      {"measurement": "time to total mitochondrial fragmentation", "setting": "[4]; twice the GST-cyclin C Hs concentration", "value": "≤ 8", "unit": "min"},
      {"measurement": "time at which significant mitochondrial fragmentation began", "setting": "[4]; ~4 nM protein", "value": "≤ 10", "unit": "min"},
      {"measurement": "percentage of culture exhibiting fragmented mitochondria by 18 min", "setting": "[4]; ~4 nM protein, digitonin treated cells, 8-10% fragmented prior to treatment", "value": 94, "unit": "%"}
    ]}
  ]
}
